As usually defined, the Kd is the constant that tells how readily two partners part at equilibrium. As usually defined, the kon is a measure of how fast the partners come together.

Drawing on patent US20180273613A1 (SAMSUNG ELECTRONICS, published 2018), this text covers binding result, Kd and kon for three molecules.

The target in experiment [1] is T1, BSA (bovine, UniProt P02769).
T1 construct: commercial preparation, not further described; also called Bovine serum albumin; BSA (Sigma)
Description: Complex ELISA: BSA coated (4 µg/ml), FLAG-Ang2 0.25 µg/ml and 10D6 2 µg/ml, Ang2 on the plate shown indirectly by bound 10D6 (anti-mouse IgG-HRP, OD450). How it is done: (§1) A 96-well MaxiSorp™ flat-bottom plate (Nunc) was coated with 4 μg/ml of Tie2-Fc (R&D systems) or BSA (Sigma). Then, the plate was washed five times with 0.05% (v/v) Tween-20-containing PBS (Phosphate Buffer Saline) and blocked with 1% (v/v) BSA (Bovine serum albumin; Sigma)-containing PBS at a room temperature for 2 hours. 0.25 μg/ml of Ang2 and 2 μg/ml of 10D6 antibody were added to each well of the plate, which was allowed to react at a room temperature for 2 hours and then washed five times with PBST. After that, an anti-mouse IgG antibody (Sigma) conjugated with HRP diluted in 1% (v/v) BSA-containing PBS at a ratio of 1:5,000 (v/v) was added in an amount of 100 μl to each well to react at a room temperature for 1 hour and then, the plate was washed five times with PBST. Lastly, 100 μl (microliter) of TMB substrate (Cell Signaling) was added to each well of the plate to induce color development for 3 min. and then, the reaction was ceased by the addition of 100 μl of Stop solution (Cell Signaling) and OD450 values were measured on a plate reader (Molecular Devices).
(In general: In an ELISA, binding on a coated surface is turned into a signal by an enzyme label.)

Experiment [2] concerns the target T1, BSA. Description: Complex ELISA: BSA coated (4 µg/ml), 10D6 2 µg/ml, anti-mouse IgG-HRP, OD450. How it is done:
as §1

The target in experiment [3] is T2, hTie2-Fc (R&D Systems) (human, UniProt Q02763 23-745).
T2 construct: Bought fusion protein, coated on the plate at 4 ug/ml; also called hTie-2/Fc fusion protein; not shown: Fc of human IgG1
In words: Complex ELISA: Tie2-Fc coated (4 µg/ml), 10D6 2 µg/ml without Ang2, anti-mouse IgG-HRP, OD450. The protocol:
as §1

Experiment [4] addresses T3, recombinant hAng2 (C-His, R&D Systems) (human, UniProt O15123 19-496).
T3 construct: Bought protein (R&D Systems), captured on an anti-His chip in SPR; also called human Ang2 protein; Angiopoietin-2; not shown: C-terminal His tag
T3 sequence: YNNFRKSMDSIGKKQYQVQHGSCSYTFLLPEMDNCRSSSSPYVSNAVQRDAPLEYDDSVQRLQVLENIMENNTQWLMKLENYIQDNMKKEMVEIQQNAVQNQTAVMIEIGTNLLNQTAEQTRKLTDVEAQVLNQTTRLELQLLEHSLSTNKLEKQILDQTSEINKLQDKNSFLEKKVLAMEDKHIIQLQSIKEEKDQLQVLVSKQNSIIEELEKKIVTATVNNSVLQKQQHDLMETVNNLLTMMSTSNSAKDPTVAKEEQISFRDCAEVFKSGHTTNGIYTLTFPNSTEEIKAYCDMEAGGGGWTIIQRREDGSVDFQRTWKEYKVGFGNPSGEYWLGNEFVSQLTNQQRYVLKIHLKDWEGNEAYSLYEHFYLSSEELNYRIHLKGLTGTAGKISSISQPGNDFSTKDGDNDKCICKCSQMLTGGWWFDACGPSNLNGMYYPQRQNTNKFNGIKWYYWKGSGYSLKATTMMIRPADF
Description: SPR, BIAcore T100; hAng2 (C-His) captured on anti-His CM5 chip, antibody flowed. The protocol:
The binding affinity (KD values) of the antibodies to human Ang2 protein was measured by an SPR method using a BIAcore T100 (GE Healthcare). 25 μg/ml anti-His antibody was immobilized on a CM5 sensor chip (GE healthcare) using a pH 5.0 acetate solution and an amine coupling kit (GE Healthcare). 6 μg/ml of a recombinant hAng2 (C-His, R&D Systems) protein was flowed onto the chip to be captured at 100 to 200 RU levels.
For orientation: Surface plasmon resonance follows binding to a sensor surface in real time, without labels.

T1 sequence (P02769 25-607 limits assumed): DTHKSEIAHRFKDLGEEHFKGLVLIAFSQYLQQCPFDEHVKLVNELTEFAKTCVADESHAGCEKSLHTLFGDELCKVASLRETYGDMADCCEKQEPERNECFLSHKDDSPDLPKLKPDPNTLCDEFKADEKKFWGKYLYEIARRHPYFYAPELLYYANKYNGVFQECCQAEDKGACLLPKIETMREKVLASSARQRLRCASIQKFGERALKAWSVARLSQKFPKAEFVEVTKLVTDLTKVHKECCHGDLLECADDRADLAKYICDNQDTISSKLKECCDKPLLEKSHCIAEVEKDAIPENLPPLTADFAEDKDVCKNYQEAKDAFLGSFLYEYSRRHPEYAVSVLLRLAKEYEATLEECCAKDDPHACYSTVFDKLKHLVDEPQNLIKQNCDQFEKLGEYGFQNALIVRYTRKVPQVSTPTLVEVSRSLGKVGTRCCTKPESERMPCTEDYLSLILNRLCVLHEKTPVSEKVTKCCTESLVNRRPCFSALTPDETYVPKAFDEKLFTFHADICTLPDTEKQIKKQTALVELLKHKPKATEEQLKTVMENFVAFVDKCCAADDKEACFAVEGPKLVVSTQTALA
T2 sequence (Q02763 23-745 limits assumed): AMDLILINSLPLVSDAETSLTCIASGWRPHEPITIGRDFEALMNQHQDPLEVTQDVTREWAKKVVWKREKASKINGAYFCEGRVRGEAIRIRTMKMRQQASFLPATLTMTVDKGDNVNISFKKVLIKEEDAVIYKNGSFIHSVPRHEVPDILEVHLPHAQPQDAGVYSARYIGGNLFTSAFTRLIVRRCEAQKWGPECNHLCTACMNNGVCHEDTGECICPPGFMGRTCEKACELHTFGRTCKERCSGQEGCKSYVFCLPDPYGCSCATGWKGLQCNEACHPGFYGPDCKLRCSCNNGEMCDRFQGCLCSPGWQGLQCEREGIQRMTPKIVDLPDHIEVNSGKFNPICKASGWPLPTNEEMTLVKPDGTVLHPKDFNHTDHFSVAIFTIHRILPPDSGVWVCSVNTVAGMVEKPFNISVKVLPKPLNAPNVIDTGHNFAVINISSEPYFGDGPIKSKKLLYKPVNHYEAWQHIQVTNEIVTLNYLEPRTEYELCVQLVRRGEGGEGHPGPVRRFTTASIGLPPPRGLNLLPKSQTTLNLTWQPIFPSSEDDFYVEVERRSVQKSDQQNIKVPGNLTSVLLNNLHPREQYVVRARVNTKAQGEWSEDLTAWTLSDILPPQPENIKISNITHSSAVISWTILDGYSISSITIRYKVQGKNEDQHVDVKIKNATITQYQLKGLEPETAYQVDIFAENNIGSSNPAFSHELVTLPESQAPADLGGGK

B1: FLAG-tagged hAng2 (ligand)
chain: T3 sequence
notes: not shown: FLAG tag
With B1, in experiment [1], the binding result was “no binding (tested: 0.25 µg/ml)”.

B2: SAIT-ANG2-AB-m10D6 (antibody, V domains shown)
VH: DVQLQESGPDLVKPSQSLSLTCTVTGYSITSDYAWNWIRQFPGNKLEWMGYINYSGNTDYNPSLKSRSSITRDTSKNQFFLQLNSVTTGDTATYYCARGNFEGAMDYWGQGTSVTVSS
VL: SIVMTQTPKFLLVSAGDRVTITCKASQSVSNDVAWYQQKPGQSPKLLIYYASNRYPGVPDRFTGSGYGTDFTFTISTVQAEDLAVYFCQQDYSSPWTFGGGTKLEIK
notes: Mouse monoclonal antibody from hybridoma KCLRF-BP-00295, purified on Protein G and detected with anti-mouse IgG; the mouse constant regions are not; also called mouse antibody 10D6; mouse anti-Ang2 antibody 10D6
As to B2, the binding result in experiment [2] and in experiment [3] was “no binding (tested: 2 µg/ml)” throughout.

B3: h10D6-OPTI-65 (antibody, V domains shown)
VH: QVQLQESGPGLVKPSETLSLTCAVSGYSITSDYAWNWIRQPPGKGLEWMGKISYSGKTDYNPSLKSRSTISRDTSKNQFSLKLSSVTAADTAVYYCARGNFEGAMDYWGQGTLVTVSS
VL: DIQMTQSPSSLSASVGDRVTITCKASQSVSNDVAWYQQKPGKAPKLLIYYASIPYPGVPSRFSGSGSGTDFTLTISSLQPEDFATYYCQQDYSSPWTFGQGTKLEIK
notes: also called HU2-6.6 / 10D6_VL-Hu1-2.4
On to B3, for which, in experiment [4], the Kd was 0.0454 nM and the kon was 496000 M⁻¹ s⁻¹.
